The experiment concerns the target 天然TSLP. In words: cell-based or functional assay.

The substance Tezepelumab (antibody) had an IC50 of inhibition of natural TSLP-induced STAT5 phosphorylation in SW756-STAT5-Luciferase reporter cells of 1.45 ng/mL.

Values taken from CN114028561A.
